In a protein production outcome set (Wang et al. 2014):

Experiment: label from the status in PepcDB records
With “MVEGTESATGAASAGDLVEGRHAAPKARAGKGGLARSSLLMALGTVVSRATGLIRQVLQAAALGTGLLASTYNTANTVPTSLYTLLIGGALNAVLVPQLVRARATQPDGGRAYEQRLVTLVLCVLGVGTALAVWAAPGIVALYMRDTPDSHEAFELTVVFARFLLPQIFFYGVFSILGQVLNAREKFGAMMWTPVLNNVVLIGMFGAYLSLMTVPDRVEDITGQQVRFLGVCTTAGIALQALALIPFVRAAGFRFRPRFDWRGTGLGKSVHAAKWTLLLVLANQVALTVVTNYANAVDQELPKAGAGYTAYTYAQTIWMLPQSIVTVSLVTALLPRMSRAVAEDRLPDLRADLSRVLRISGVVIVPAGFLFLALGPGIATLLFAHGAADAASAQPLGHMLQAFGLGLIPFSAQYLLLRGFYAFEDTRTPFFMAVWIAVVNIALATACHLLLPARWAVTGMAAGYTLSYLAGLLLTARLLRKRLGGRRLDDGELRRTYGKLLCASAVAAGAGWAAARATATTTPTALALAAGAVTMALVYVALARLLKVSELRLPGRG” the protein production was “failed”.
For “MVEHATSETDLDRIVRMFDGANLIVHGFDGVIQRWTSGCEQLYGWSASEAVGNVVHDLLDTQFPAGVEELRTEVRDKGFWTGQVGHRRKDGVRLAIVTRWTVLELGDPDTLIIQSNNDVTLMQQVGDELRERQAHLQSILATVPDAMIVIDDKGCIASFSTAAEKLFGYSADEAIGQNVSMLMPSPDREAHDGYLDSYIRTGRRRIIGYGRVVVGLRKHGTTFPMELSVGEAVAGGKRTFTGFVRDLTSRHRIEAELRQSQKMEAVGQLTGGLAHDFNNLLAVIIGNLEMLEARLAEPGQLSLLREAQSAADDGARLTSQLLAFGRRQALAPTVLDVGALLGEFSDLVQRTLGDSVELRTIIPGRRLSAMADKAQLQSALLNLSINARDAMPAGGRLTIEISGVEIDADYVGMYPAIRPGRYVLISVTDTGTGMTSEVMERAFEPFFTTKPTGSGTGLGLSMVYGFAKQSAGHLQLYSEPGEGTTVRLFLPRADGGRDSHPDEQQVKDAPSPGTETILVVEDDARVRRVTISRLQTLGYSVIEATNGIDALKELEAGHDVALLFSDVAMPGMNGDELARKVRERWPRVKILLTSGFSEPHAAEKEIEAGAGWLKKPYTASEMSTRLRLLLDARHGSDSA”, the protein production was “failed”.
In the case of “MVEPDRVFFVRVMREWISRFTGKIIENFEIHLSQPMGFAGDIMSLTEFATSRQVKNLVLDFSDPIQRNLSQAQQIIRDGLLRCRYPQKNELDVLQDCDDPMALHVSMKTRHLVMKTNMHANDFVGISIFLNSCPELESLTFDLVTSSRFVRAPSPLVIDPVSHWLTSKSYECLEKTLKVVKITKFRGSSNELHMLQYLLRTGCVMERVDLYEAEGLNHNQKRWVLAGVEEVQQNFKRASRHLRITLHNA”, the protein production is reported as “not failed”.
With “MVERTAVFPAGRHSLYAEHRYSAAIRSGDLLFVSGQVGSREDGTPEPDFQQQVRLAFDNLHATLAAAGCTFDDIIDVTSFHTDPENQFEDIMTVKNEIFSAPPYPNWTAVGVTWLAGFDFEIKVIARIPEQ” the protein production was “not failed”.
In the case of “MVEVSQFKDAMAQLASAVHIVTTSGETGQHGFTASAVCSVTDSPPTLLVCINSNARAYEHFVKNRVLMVNTLTAEQSSLSNIFASPLSQEERFSNASWTTLTTGSPMLQDALINFDCEITEIKHVGTHDILICKIVDIHQSNAKNALVYRNRVYHSV”, the protein production is reported as “not failed”.
With “MVFLVPFDGSPLADAALNRAVTYAKALDEDVVAVAFIPTGADYAERRRRVDPTEDFAAETAADDLRRKIEEATDDSELRYDDVSAHSTSELSTTIRQTARDVDANVVFLGSDDTEDIVVPIGEVTDGEDYDVHIVRRT” the protein production was “failed”.
For “MVGFKPTDVPPTAAVKFIGAGTAACIADLFTFPLDTAKVRLQIQGESKAVHMKTASYKGVFGTISTMVKMEGPKSLYNGLAAGLQRQMSFASVRIGLYDSVKQFYTKGSEHAGIGSRLAAGCTTGAMAVAVAQPTDVVKVRFQAQANSSANRRYKGTMDAYRTIAREEGMRGLWKGTVPNITRNAIVNCTELVTYDLIKDSILKANIMTDNLPCHFTSAFGAGFCTTVIASPVDVVKTRYMNSAKGQYTSALNCALTMFRKEGPRAFYKGFMPSFLRLGSWNVVMFVTYEQLKRAMMSAQRSREAPF”, the protein production was “failed”.
In the case of “MVGGVEELSIEQLASSISTYKEQLEQNFVCGLEFRIGEEKLNVRQLLSEDPRNSEYADMEKELKEVIALTEEVLATAKQNEISLSDAGVSAEATPGSPDLEGAWEKTGLRNDPIHEGKFPVGTKVQAVFSDDGEWYDATIEAHTANGYFVAYDEWGNKEEVDPDNVRPIEQNAIVEAERLAQATKNALKRKIEKAASSDYQTKTLPAKLKIDPNDPEDVKIAKRKKIHAFKSKARFEQLEVVQNKKQNDWQQFQTTKAKTKKVGFFTGRKKESIFKSPEDPFGKVGVTGSGKGLTDFQKREKHLHLKSGNAEGTDE”, the protein production is reported as “failed”.
For “MVGISFVFDKISNGISSYKSIKGIEQAHKSKKIASDLREYGYKLLDCRKLEAAKDAFEEALRFDPTNPEIQMGLFKSAVFQPILTKNPTYYDAEIALKKIETILKKNPNDRHAYYFMGEIYRDSDPKKASNYYKKVISLDPKSYLTGLAYNSLAYIAATEKDNDLAFYYMKKAANLCEMNPTVLNNLSYQHLIRGQYEITIEKLTRLIKHDPYKIIVFWNIINSLRMIGKFQEAYIYNHMLIECIEDETTSYHAANLGAFFFQTDPSGDGVFFKEISGKKFYSYCSMALTCYVLDLTEEANMYLEKAQKLDCFSKASAIKFLYYNIECIQKNNVKLIYKLDDIKERLIKLDLFTNVSITVARNETQYINMAKV”, the protein production was “failed”.
For “MVGKMNEWELALKNKDCKKLLELFDDYFDEVSEDKLEEELKRVGEVAVECEDFDLIHEIAHIYEHLGEAEKGIDLYKRIVEKRKGRNTEDYAEALYYLADAYDHFGMPEEALKTYEELLELEKRIGNKREIGLTLANLAIIKDELGNVEEAIKLMEEARKIFEELKDENNYLISLIDLAHFKYELGEYEEAMKLIREVLRNPVDKEIEVNARLVESEIYAGERKYKEAAISLRNALQRSEDDEELFSLVFDSLTEFLEGLFNESRYRELVEVSPLFAELFEDDTKYFFNAIKGLAEWRLGNEKAREEFEENYKNIQNEELKALLDEWRRPKLSLGLNL”, the protein production was “failed”.
For “MVGTLYDKMYENFVEEVDAVDNGISQWAEGEPRYALTTTLSARVARLNPTWNHPDQDTEAGFKRAMDLVQEEFLQRLDFYQHSWLPARALVEEALAQRFQVDPSGEIVELAKGACPWKEHLYHLESGLSPPVAIFFVIYTDQAGQWRIQCVPKEPHSFQSRLPLPEPWRGLRDEALDQVSGIPGCIFVHASGFIGGHRTREGALSMARATLAQRSYLPQIS”, the protein production was “failed”.
For “MVHHDGTLQALITAYQKTPAFTDLAEATRKGYIRHIRQIEADFGDMPVQALADPRVRGEFLDWRDRLAQKSKRSADYAFSVLARILSWAHDRRKIPVNPCEKPGRLEHHHHHH”, the protein production was “failed”.
With “MVIASIVIYKHSYSDLKQTLDSLLAVSSINKIVLVDNDHSDWASTYHHPKITYLKSDGNFGFGYGHNYAIKRFAAQSDYFLICNPDIVFESSEFEKLLNFIQTREEALFLPKIVYENGENQYGARLLPSPFNLFARRFSPKYAEQLDEDYLLKNFDLSKPIFAPYLHGCFMLFRSKALLELGGFDERFFMYMEDVDLSRRCAEKFGNIYYPLAQVIHLHEQGSYKNKTLLKAHLKSAWQYFCKWGWLYDAQRSSLNGKCLKQRNG” the protein production was “failed”.
In the case of “MVIFNYILVCIIFGTTFLTIKIGIEAGAPPLFSAGIRFFLAGIILMIIFKLKRKEIMPHIFSKRIMYAGFCLTFMTFASLYWSEQYISSGLAAVLSATGPMMILLIQAKRNREKLQKEQLVALVIALIGVIFVSLPGMHQQVSFIWSIACIVLVIGELFYGIGSIRSKEILSDLSNVSPFLINGIQMFYGGILLLIASIIVEQPNVTVLTSWSVQWPILYLIFIGSIGGHGLYYWLLSKTNPVFPSTWLYVSPLIAIIVGYIILGEPLNPTMGMGACLILIGVFLANRSTLRTYFKKGRLLEKEM”, the protein production is reported as “failed”.
For “MVITLSRLYVHPVKSMRGLQLSHAQVSSSGLAFDRVFMITEPDGTFITARQYPKMVMFTPALMSDGLYLTAPDGESASIRFNDFLANAEPTEVWGNHFTALIAPAAINNWLSGYFQREVQLRWLGPELTRRVKPMPEIPLSFADGFPYLLINEASFKELQQRCPGSIKLEQFRPNLLVTGASAFAEDSWQVIRVGDITFDLVKPCSRCVLTTVSVERGRKHPTGEPLQTLQTFRTAENGDIDFGQNMVARNSGIIRVGDEVEVLSTKPPRPYGAGAVVESLAAPEDKSKAVAIEYNGIRFNGNNQQVLLEQLEQQNIRIPYSCRAGICGSCRITLINGEVAPLKQSAIGNDGTILCCSCIPKGDITLSGK”, the protein production was “failed”.
With “MVKDRQIQKTKVAIYNAFISLLQENDYSKITVQDVIGLANVGRSTFYSHYESKEVLLKELCEDLFHHLFKQGRDVTFEEYLVHILKHFEQNQDSIATLLLSDDPYFLLRFRSELEHDVYPRLREEYITKVDIPEDFLKQFLLSSFIETLKWWLHQRQKMTVEDLLKYYLTMVER” the protein production was “not failed”.
In the case of “MVKDTLFSTPIAKLGDFIFDENVAEVFPDMIQRSVPGYSNIITAIGMLAERFVTADSNVYDLGCSRGAATLSARRNINQPNVKIIGIDNSQPMVERCRQHIAAYHSEIPVEILCNDIRHVEIKNASMVILNFTLQFLPPEDRIALLTKIYEGLNPNGVLVLSEKFRFEDTKINHLLIDLHHQFKRANGYSELEVSQKRTALENVMRTDSIETHKVRLKNVGFSQVELWFQCFNFGSMIAVK”, the protein production is reported as “not failed”.
For “MVKFIHCSDLHLDSPFKSKSHISPKIFEDVQKSAYESFKNIVDIALQQDVDFVIIAGDLFDSENRTLRAEIFLKQQFERLQNEQIFVYVCHGNHDPLSSKISSNWPDNVSVFSNKVETYEAITKSGETIYIHGFSYENRASYENKIDEYPSSQGQKGIHIGVLHGTYSKSSVNERYTEFILEDLNSKLYHYWALGHIHERQQLSDMPVINYSGNIQGRHFNEQGEKGCLLIEGDHLKLKTKFYPTQYIRFEEATIETDKTSKQGLYEVIQNFKEQVREEGKAFYRLTLVINSETLISPQDLLQVEEMITDYEENENQFVYIDELKIQYAQNDESPLVNEFSAELLVDQTVFDKAMSDLYLNPRASKFLDDYGTFDHTALVNRAEEILKAEMRGEQNDN”, the protein production was “failed”.
With “MVKHIWDSERAAQLPKGVEELVYRSNLIGSDRTVCNWGGGNTSMKTTEKDFRGREIEVMWVKGSGSDLATMKAHNFSGLKLDDIRPLIKRDQMPDEEMVDYLSHCMIDSKHPRPSIETLLHAFLPYKHVDHTHPDAIISICCADNGKQIAEDIYGNRFVWVPYVRPGFTLSKMIAEGVANNPHAELVLMEKHGLVTWGETSETCYQKTISIIQEAEQYINDRINQHEVFGGKRYQPLPEDKR” the protein production was “not failed”.
With “MVKKLFILISYGVIAALIYLYGEWLLEWIQQGGARFIFLTVIIATLLALFPIIPYPIIGGVLGAAYGPFLGSAVTWIGSSLASIIMFMFVRYGYQDWGLSLIRRSDLVTKVTAMFEKNAFMAIFITRLIPIIPSIIVNIYSALSRVSFINYSIASSLGKVPSMILFAVVGNSIATNPSQLLWIALFYSSFLLIVWIGYRAWQRVALQKQANI” the protein production was “failed”.
For “MVKLDRYIGVTVFVAILAVLGVILGLALLFAFIDELNDISASYGIGDALRFIFLTAPRRAYDMLPMAALIGCLVGLGTLASNSELTIMRAAGVSLSRIVWAVMKPMLVLMLAGILVGEYVAPWTENIAQSGRALAQGGGDSQSSKRGLWHRQGREYIHINAVQPNGVLYGVTRYRFDEQRGLESASFAKRARFETDHWQLEEVTTTLLHPREKRSEVVKLPTERWDAQLSPQLLNTVVMEPEALSISGLWQYIHYLADQGLNNNRYWLAFWTKVLQPLVTAALVLMAISFIFGPLRSVTLGQRIFTGVLVGFVFRIAQDLLGPSSLVFDFPPLLAVVIPASICALAGVWLLRRAG”, the protein production was “failed”.
